“And” between values parts separate entries of the source, which are not always exact repeats. Identical values can stand only once.

In assay [1] the target is IZ-CD95L (after His-tag cleavage with TEV protease) (human). The assay is described as follows: SEC; Superdex 75 10/300 GL (Fig. 3A) or ENrich SEC 70 10 x 300 (Fig. 3B, C); PBS pH 7.4, 0.3 ml/min; sizes from a standard curve of protein standards; peak shares from Gaussian fits. For orientation: SEC sorts molecules by how far they enter the pores of the column.
Assay [2] deals with CD95-His (Sino Biological) (UniProt P25445).
Sequence of CD95-His (Sino Biological) (P25445 26-173): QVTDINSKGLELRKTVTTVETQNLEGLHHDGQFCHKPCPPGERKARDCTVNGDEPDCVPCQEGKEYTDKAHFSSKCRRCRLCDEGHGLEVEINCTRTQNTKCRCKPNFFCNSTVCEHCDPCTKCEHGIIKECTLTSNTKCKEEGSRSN
Assay [3] has the same target. In words: ELISA; CD95-His coated at 2 µg/ml in PBS overnight at 4 °C; biotin-IZ-CD95L or FLAG-CD95L 0.1 nM to 100 nM in 0.5% BSA/PBST, 2 h at r.t.; detected with anti-CD95L antibody and HRP secondary; 4-parameter logistic fit.
The next assay concerns the target biotin-IZ-CD95L (human). The assay is described as follows: SEC; Superdex 75 10/300 GL (Fig. 3A) or ENrich SEC 70 10 x 300 (Fig. 3B, C); PBS pH 7.4, 0.3 ml/min; sizes from a standard curve of protein standards; peak shares from Gaussian fits.

Regarding “IZ-CD95L (after His-tag cleavage with TEV protease) (ligand)”, in assay [1], the percent of the protein in the trimer peak (Peak B, Gaussian fit) was determined as 55%; the stoichiometry N – broadly, the number of molecules, sites or subunits per partner or assembly – is 3 and 2. Moreover, in assay [2], the Max (%) of apoptotic Hela WT cells (endogenous CD95), apoptosis dynamics assay, 1000 ng/ml ligand came out at 72.9%.
For biotin-IZ-CD95L (ligand), the Kd (commonly the concentration at which binding is half-saturated) in assay [3] amounted to 0.68 nM. In addition, in the assay with biotin-IZ-CD95L (human), the percent of the protein in the trimer peak (Peak B, Gaussian fit) amounted to 48%; the stoichiometry N is 3 and 2. In assay [2], this substance yielded a Max (%) of apoptotic Hela WT cells (endogenous CD95), apoptosis dynamics assay, 1000 ng/ml ligand of 75.7%.

These data come from publication PMC12219679.
